The text below walks through data of US20140161875A1 (KATHOLIEKE UNIVERSITEIT LEUVEN, published 2014).

The target in one assay is endogenous mouse tau (mouse, UniProt P10637-2 2-430, limits assumed). As to the kind of experiment: Western blot of mouse brain extracts. The source says:
FIG. 3: Analysis of the novel mAbs on samples of transgenic mice and human brain. A) Western blot analysis of brain extracts from control mice (FVB), knock-out mice and transgenic (Tg) mice expressing a clinical mutant of human tau (Tau-P301L). The age of the mice is indicated between brackets. The arrow on the second blot indicates high molecular weight tau complexes. The antibodies used are ADx215 (YT1.15), ADx210 (YT1.10) and the commercial phosphorylation-specific antibody AT100 (exposure time of 30 min for ADx210 (YT1.10) and AT100, and 30 sec for ADx215 (YT1.15)). B) Tau epitope sequence recognized by ADx201 (YT1.1) and ADx215 (YT1.15). C) Western blot analysis of brain extracts from brain extracts obtained from a healthy person (non-AD) and an AD patient using the Mab ADx215 (YT1.15) (exposure time 2 min.). The brain regions from which the extracts were prepared are indicated. As control served brain extracts obtained from the hippocampus and cortex of the tau Tg mice Tau22. The arrow indicates high molecular weight tau complexes present in samples from AD brain. […]
Furthermore, the high affinity Mab ADx215 (YT1.15) specifically detected high molecular weight tau complexes in brain extracts of both Tg mice (Fig. A, C) and a late stage AD patient (data provided by L. Buée, Inserm U837, U. Lille, France; Fig. C).
Background: In western blotting, separated proteins are transferred to a membrane and probed.

The target of assay [1] is T1, recombinant HIS-tagged tau obtained from E. coli (UniProt P10636-8 1-441, limits assumed).
T1 construct: also called E. coli-produced recombinant tau; recombinant non-phosphorylated tau purified from bacteria
In words: Western blot. The source says: FIG. 2: Selectivity for tau aggregates and phosphorylation dependency of anti-tau mAbs of the invention. A) Western blot analysis of recombinant HIS-tagged tau obtained from E. coli and protein extracts obtained from control and humanized yeast strains using the commercial pan-tau antibody Tau-5 and ADx210 mAb as indicated. The number between brackets refers to the exposure time. The solid bar refers to high molecular weight and oligomeric tau and the small arrow in the picture of ADx210 to a presumable tau dimer. B) Western blot analysis of purified tau obtained from the pho85Δ strain before and after treatment with shrimp alkaline phosphatase (SAP) following different time intervals as indicated. Recombinant HIS-tagged tau obtained from E. coli served as control. The pan-tau antibody Tau-5, the phosphorylation-specific antibody AT270, and the antibody BT2 recognizing non-phosphorylated tau, were used in addition to the novel mAbs ADx215 and ADx210.
The phosphorylation specificity was initially tested on extracts obtained from the humanized wild type yeast strain and its congenic mds1Δ and pho85Δ mutants that display reduced and increased tau phosphorylation. Recombinant tau produced by E. coli served as control.

endogenous mouse tau, sequence (P10637 other isoform, or with tags, fused parts or gaps limits assumed): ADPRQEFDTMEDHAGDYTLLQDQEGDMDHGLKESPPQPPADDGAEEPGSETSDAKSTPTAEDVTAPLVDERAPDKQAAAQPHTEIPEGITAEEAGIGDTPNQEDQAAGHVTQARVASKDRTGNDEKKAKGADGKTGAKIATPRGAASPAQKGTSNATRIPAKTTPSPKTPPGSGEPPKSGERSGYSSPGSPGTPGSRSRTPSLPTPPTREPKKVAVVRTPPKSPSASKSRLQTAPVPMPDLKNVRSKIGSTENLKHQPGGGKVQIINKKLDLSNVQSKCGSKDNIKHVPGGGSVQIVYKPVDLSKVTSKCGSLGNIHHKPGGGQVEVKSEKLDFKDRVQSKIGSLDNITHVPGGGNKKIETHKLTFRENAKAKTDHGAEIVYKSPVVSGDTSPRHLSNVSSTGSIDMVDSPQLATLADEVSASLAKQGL

B1: ADx215 monoclonal antibody (hybridoma LMBP 9679CB) (antibody, IgG1, V domains shown)
VH: EVQLVESGGDLVKPGGSLKLSCAASGFNFRSYGMSWVRQTPDKRLEWVATISSGGNYTYYPDSVKGRFTISRDNAKNILYLQMSSLNSEDTALYYCTYSFYGAFDYWGQGTTLTVSS
VL: DVLMTQTPLSLPVSLGDQASISCRSSQNILHSNGNTYLEWYLQKPGQSPKLLIYKVSSRFSGVPDRFSGSGSGTDFTLKITRVEAEDLGVYYCFQGSLVPWTFGGGTKLEIRR
notes: also called YT1.15
Turning to B1, the binding result in the assay with endogenous mouse tau is “no binding”.

B2: ADx210 monoclonal antibody (hybridoma LMBP 8347CB) (antibody, V domains shown)
VH: VQLQESGGGLVQPGGSRKLSCAASGFTFSNFGMHWVRQAPDKGLEWVAYITSGSSSIYYADTVKGRFTISRDNPKNTLFLQMTSLRSEDTAMYYCARSVPYGYGLFDYWGRGTTLTVSS
VL: DVLMTQIPVSLSVSLGDQASISCRSSESIVHSSGKTYLEWYLQKPGQSPKLLIYEVSNRFSGVPDRFSGSGSGTDFTLKISRVEAEDLGVYYCFQGSHVPWTFGGGTKLEIKR
notes: Mouse hybridoma mAb (BALB/C immunised with yeast-purified tau); constant regions are not; also called YT1.10; IGH-593
As for B2, the binding result (in assay [1]; in the assay with endogenous mouse tau) was “no binding” in each case.
